B1: TPR t1 (parent)
chain: GACCAAUCUGCCCUCAGAGCUCGAGAACAUCUUCGGAUGCAGAGGAGGCAGGCUUCGGUGGCGCGAUAGCGCCAACGUCCUCAACCUCCAAUGCAUCCCACCACAUGAUGAUGCCUGAAGAGCCUUGGUUUUUUG

The variants in the data set derive from B1. Kind of data set: polymerase ribozyme fitness, log enrichment relative to wild type (log ratio); higher = more active; in vitro selection for triplet polymerase activity. The procedure, abridged: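 For each subunit of a heterodimeric triplet polymerase ribozyme, a mutant library was built by PCR and transcribed, then taken through a single in vitro selection round in triplicate. Selection involved annealing to a biotinylated primer, the partner subunit and triplets, incubation frozen at −7 °C, gel excision of extended constructs, capture on streptavidin beads and RT-PCR. Genotypes were retained after Illumina sequencing of inputs and outputs only with ≥10 input reads and ≥1 read in each output. Fitness is defined as the logarithm of a genotype's enrichment relative to wild-type enrichment, using inverse-variance-weighted averages across replicates, with the logarithm taken to base 2.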
With GACCAAUCUGCCCUCAGAGUUCGAGAACAUCUACGGAUGCAGAGGAGGCAGGCUUCGGUGGCGCGAUAGCGCCAACGUCCUCAACCUCCAAUGCAUCCCACCACAUGAUGAUGCCUGAAGAGCCUUGGUUUUUUG [C20U U33A], the “polymerase ribozyme fitness (log ratio)” value was -5.51.

On to GACCAAUCUGCCCUCAGAGUUCGAGAACAUCUUCGGAUGCAGAGGAGGCAGGCUUCGGUGGCGCGAUAGCGCCAACGUCCUCAACCUCCAAUGCAUCCCACCACAUGAUGAUACCUGAAGAGCCUUGGUUUUUUG [C20U G113A], for which the “polymerase ribozyme fitness (log ratio)” value was found to be 1.4.

GACCAAUCUGCCCUCAGAGUUCGAGAACAUCUUCGGAUGCAGAGGAGGCAGGCUUCGGUGGCGCGAUAGCGCCAACGUCCUCAACCUCCAAUGCAUCCCACCACAUGAUGAUCCCUGAAGAGCCUUGGUUUUUUG [C20U G113C]: the “polymerase ribozyme fitness (log ratio)” value was -2.2.

As for GACCAAUCUGCCCUCAGAGUUCGAGAACAUCUUCGCAUGCAGAGGAGGCAGGCUUCGGUGGCGCGAUAGCGCCAACGUCCUCAACCUCGAAUGCAUCCCACCACAUGAUGAUGCCUGAAGAGCCUUGGUUUUUUG [C20U G36C C89G], the “polymerase ribozyme fitness (log ratio)” value was -3.93.

As to GACCAAUCUGCCCUCAGAGUUCGAGAACAUCUUCGGAUGCAGAGGAGGCAGGCUUCGGUGGCGCGAUAGCGCGAACGUCCUCAACCUCCAAUGCAUCCCACCACAUGAUGAUGGCUGAAGAGCCUUGGUUUUUUG [C20U C73G C114G], the “polymerase ribozyme fitness (log ratio)” value was -1.71.

Take GACCAAUCUGCCCUCAGAGUUCGAGAACAUCUUCGGAUUCAGAGGAGGCAGGCUUCGGUGGCGCGAUAGCGCCAACGUCCUCAACCUCUAAUGCAUCCCACCACAUGAUGAUGCCUGAUGAGCCUUGGUGUUUUG [C20U G39U C89U A119U U130G]: the “polymerase ribozyme fitness (log ratio)” value is -4.97.

As to GACCAAUCUGCCCUCAGAGUUCGAGAACAUCUUCGGAGGCAGAGGAGGCAGGCUUCGGUGGCGCGAUAGCGUCAACGUCCUCAACCUCCAAUGCAUCCCACUACAUGAUGAUGCCUGAAGAGCCUUGGUUUUUUG [C20U U38G C72U C102U], the “polymerase ribozyme fitness (log ratio)” value is -5.01.

Consider GACCAAUCUGCCCUCAGAGUUCGAGAACAUCUUCGGAUGCAGAGGAGGCAGGCUUCGGUGGCGUGAUAGCGCCAACGUCCUCAACCUCCAAUGCAUCCCACCACAUGAUGAUGUCUGGAGAGCCUUGGUUAUUUG [C20U C64U C114U A118G U131A], for which the “polymerase ribozyme fitness (log ratio)” value is -0.511.

In the case of GACCAAUCUGCCCUCAGAGUUCGAGAACAUCUUCGGAUGCAGAGGAGGCAGGCUUCGGUGGCGCGAUAGCGCCAACGUCCCCAACCUCCAAUGCAUCCCACCACAUGAUGAUGCCUGAAGAGCCUUGGUUUUUUG [C20U U81C], the “polymerase ribozyme fitness (log ratio)” value was -1.54.

Regarding GACCAAUCUGCCCUCAGAGUUCGAGAACAUCUUCGGAUGCAGAGGAGGCAGGCUUCGGUGGCGUGAUAGCGCCAACGUCCUCAACCUCCAAUGCAUCCCACCAAAUCAUGAUGCCUGAAGAGCCUUGAUUUUUUG [C20U C64U C104A G107C G128A], the “polymerase ribozyme fitness (log ratio)” value was -6.14.

For the variant GACCAAUCUGCCCUCAGAGUUCGAGAACAUCUUCGGAUGCAGAGUAGGCAGACUUCGGUGGCGCGAUAGCGCGAACGUCCUCAACCUCCAAUGUAUCCCACCAUAUGAUGAUGCCUGAAGAGCCUUGGUUUUUUG [C20U G45U G52A C73G C94U C104U], the “polymerase ribozyme fitness (log ratio)” value was -4.54.

For GACCAAUCUGCCCUCAGAGUUCGAGAACAUCUUCGGAUGCAGAGGAGGCAGGCUUCGGUGGCGCGAUAGCGACAACGUCCUCAACCUCCAAUGCAUCCCACCACAUGAUGAUGCCUGAAGAGCCUUGGUUUUUUG [C20U C72A], the “polymerase ribozyme fitness (log ratio)” value was -1.55.

On to GACCAAUCUGCCCUCAGAGUUCGAGAACAUCUUCGGAUGCAGAGGAGGCAGGCUUCGGUGGCGCGAUAGCGGCAACGUCCUCAACCUCCAAUGCAUCCCACCACAUGAUGAUGCCUGAAGAGCCUUGGUUUUUUG [C20U C72G], for which the “polymerase ribozyme fitness (log ratio)” value is -1.56.

For GACCAAUCUGCCCUCAGAGUUCGAGAACAUCUUCGGAUGCAGAGGAGGCAGGCUUCGGUGGCGCGAUACCGCCAACGUCCUCAACCUCCAAUGUAUCCCACCACAUGAUGAUGCCUGAAGAGCCUUGGUUUUUUG [C20U G69C C94U], the “polymerase ribozyme fitness (log ratio)” value is -2.8.

GACCAAUCUGCCCUCAGAGUUCGAGAACAUCUUCGGAUGCAGAGGAGGCAGGCUUCGGUGGCGCGAUAGCGCCAACUUCCUCAACCUCCAAUGCAUCCCACCACAUGAUGAUGCCUGAAGAGCCUUGGUUUUUUG [C20U G77U]: the “polymerase ribozyme fitness (log ratio)” value was -1.15.

Take GACCAAUCUGCCCUCAGAGUUCGAGAACAUCUUCGGAUGCAGAGGAGGCAGGCUUCGGUGGCGCGAUAGCGCCAACGUCCUCAACCUCCAAUGCAACCCACCACAUGAUGAUGCCUGAAGAGCCUUGGUGUUUUG [C20U U96A U130G]: the “polymerase ribozyme fitness (log ratio)” value was -4.47.

Regarding GACCAAUCUGCCCUCAGAGUUCGAGAACAUCUUCGGAUGCAGAGGAGGCAGGCUUCGGUGGCGCGAUAGCGCCAACGCCCUCAACCUCCAAUGCAUCCCACCACAUGAUGAUGCCUGAAGAGCGUUGGUUUUUUG [C20U U78C C124G], the “polymerase ribozyme fitness (log ratio)” value amounted to 0.066.

Consider GACCAAUCUGCCCUCAGAGUUCGAGAACAUCUUCGGAUGCAAAGGAGGCAGGCUUCGGUGGCGCGAUAGCGCCAACGUCCUCAACCUCCAAUGCAUCCCACCACAAGAUGAUCCCUGAAGAGCCUUGGUUUUUUG [C20U G42A U106A G113C], for which the “polymerase ribozyme fitness (log ratio)” value is -2.24.

Take GACCAAUCUGCCCUCAGAGUUCGAGAACAUCUUCGGAUGCAGAGGAGGCAGGCAUCGGUGGCGCGAUAGCGCAAACGUCCUCAACCUCCAAUGCAUCCCACCACAUGAUGAUGCGUGAAGAGCCUUGGUUUUUUG [C20U U54A C73A C115G]: the “polymerase ribozyme fitness (log ratio)” value is -3.1.

Consider GACCAAUCUGCCCUCAGAGUUCGAGAACAUCUUCGGAUGCAGAGGAGGCAGGCUUCGGUGGCGCGAUAGCGCCAACGUCCUCAACCUCCAAUGCAUCCCACCACAUGAUGAUGGCUGAAGAGCCUUGGUUUUUUG [C20U C114G], for which the “polymerase ribozyme fitness (log ratio)” value is -1.55.

Consider GACCAAUCUGCCCUCAGAGUUCGAGAACAUCGUCGGAUGCAGAGGAGGCAGGCUUCGGUGGCGCGAUAGCGCCAACGUCCUCAACCUCCAAUGCAUCCCACCACAUGAUGAUGCCUGAAGAGCCUUGGUUUUUUG [C20U U32G], for which the “polymerase ribozyme fitness (log ratio)” value is -6.33.

The values are drawn from the RNAGym collection of RNA variant scans (doi:10.1073/pnas.2313332121).
